Experiments:
PYL3 with HAB1 [1] = target: T1, PYL3 with HAB1 (Arabidopsis thaliana, UniProt Q9SSM7, F188A); test: HAB1 phosphatase assay (Promega V2460), phosphopeptide substrate; assay type: biochemical; details: read-out: % inhibition of HAB1 with 5 μM ABA
T1 construct: 6xHis-tagged PYL3 plus HAB1 (169-511), GST tag removed by TEV protease; both from E. coli; with Protein phosphatase 2C 16
T1 sequence (Q9SSM7 1-209 F188A): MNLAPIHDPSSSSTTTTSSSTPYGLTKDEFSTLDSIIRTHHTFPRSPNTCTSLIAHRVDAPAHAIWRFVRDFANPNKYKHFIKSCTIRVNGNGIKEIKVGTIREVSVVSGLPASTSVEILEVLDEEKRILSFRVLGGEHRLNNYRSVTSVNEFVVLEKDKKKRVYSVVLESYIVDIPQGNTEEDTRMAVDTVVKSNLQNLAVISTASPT
T1 sequence (Q9CAJ0 169-511 partner): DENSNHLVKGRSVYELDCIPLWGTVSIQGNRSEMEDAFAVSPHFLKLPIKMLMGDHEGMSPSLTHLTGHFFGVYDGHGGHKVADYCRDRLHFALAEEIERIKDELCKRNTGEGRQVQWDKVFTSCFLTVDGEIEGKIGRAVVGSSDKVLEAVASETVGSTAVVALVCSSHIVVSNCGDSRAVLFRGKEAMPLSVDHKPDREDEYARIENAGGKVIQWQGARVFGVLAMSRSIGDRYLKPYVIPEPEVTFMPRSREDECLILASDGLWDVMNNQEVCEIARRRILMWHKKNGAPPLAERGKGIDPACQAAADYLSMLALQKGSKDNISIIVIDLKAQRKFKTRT

PYL3 with HAB1 [2] = target: T2, PYL3 with HAB1 (Arabidopsis thaliana, UniProt Q9SSM7); test: as above; assay type: biochemical; details: HAB1 0.5 μM, PYL3 1 μM, ABA 5 μM, pH 7.5, 30 °C; ABA promotes inhibition of HAB1 by PYL3
T2 construct: 6xHis-tagged PYL3 plus HAB1 (169-511), GST tag removed by TEV protease; both from E. coli; with Protein phosphatase 2C 16
T2 sequence (Q9SSM7 1-209): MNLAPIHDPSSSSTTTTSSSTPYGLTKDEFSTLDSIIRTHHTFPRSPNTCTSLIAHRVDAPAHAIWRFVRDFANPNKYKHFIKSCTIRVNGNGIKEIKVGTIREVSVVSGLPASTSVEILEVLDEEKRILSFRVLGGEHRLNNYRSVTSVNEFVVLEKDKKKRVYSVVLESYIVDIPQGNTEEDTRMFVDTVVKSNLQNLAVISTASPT
T2 sequence (Q9CAJ0 169-511 partner): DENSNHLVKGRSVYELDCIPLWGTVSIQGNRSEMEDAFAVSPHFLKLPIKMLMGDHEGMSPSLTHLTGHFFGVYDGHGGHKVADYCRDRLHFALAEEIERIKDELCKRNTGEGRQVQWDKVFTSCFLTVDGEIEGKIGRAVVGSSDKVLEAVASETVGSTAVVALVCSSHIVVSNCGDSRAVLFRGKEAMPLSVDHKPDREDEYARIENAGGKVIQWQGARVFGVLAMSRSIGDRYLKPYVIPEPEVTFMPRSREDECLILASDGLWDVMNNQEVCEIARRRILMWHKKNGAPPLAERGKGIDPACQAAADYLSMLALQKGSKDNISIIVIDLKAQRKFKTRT

PYL3 with HAB1 [3] = target: T3, PYL3 with HAB1 (Arabidopsis thaliana, UniProt Q9SSM7, F81A); test: as above; assay type: biochemical; details: read-out: % inhibition of HAB1 with 5 μM ABA
T3 construct: 6xHis-tagged PYL3 plus HAB1 (169-511), GST tag removed by TEV protease; both from E. coli; with Protein phosphatase 2C 16
T3 sequence (Q9SSM7 1-209 F81A): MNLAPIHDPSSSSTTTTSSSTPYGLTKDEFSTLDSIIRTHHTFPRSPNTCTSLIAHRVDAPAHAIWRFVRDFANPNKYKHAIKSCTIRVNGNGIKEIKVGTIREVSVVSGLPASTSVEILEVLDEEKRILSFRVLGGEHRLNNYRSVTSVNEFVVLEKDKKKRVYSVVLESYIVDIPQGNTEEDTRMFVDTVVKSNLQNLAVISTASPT
T3 sequence (Q9CAJ0 169-511 partner): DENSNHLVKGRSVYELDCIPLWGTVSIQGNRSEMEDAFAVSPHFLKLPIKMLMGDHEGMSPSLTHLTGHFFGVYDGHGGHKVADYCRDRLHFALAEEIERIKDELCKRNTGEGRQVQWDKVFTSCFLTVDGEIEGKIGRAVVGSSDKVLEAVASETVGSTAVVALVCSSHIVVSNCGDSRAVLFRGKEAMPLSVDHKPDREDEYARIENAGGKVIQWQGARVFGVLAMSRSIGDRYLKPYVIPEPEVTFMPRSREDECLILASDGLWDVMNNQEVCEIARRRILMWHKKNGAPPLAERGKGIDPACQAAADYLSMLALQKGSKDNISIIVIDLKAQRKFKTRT

[4] = target: AD-HAB1 (169-511) (Arabidopsis thaliana) (UniProt Q9CAJ0)
[5] = target: AD-HAB1 (169-511) (Arabidopsis thaliana) (UniProt Q9CAJ0); remark: listed apart in the source
[6] = target: the molecule itself; test: cross-linking; EGS cross-linking gel assay: 20 μg 6x His-tagged PYL3 WT or mutant in PBS (pH 7.5, 150 mM NaCl), 100 μL, increasing EGS, 10 min at room temperature, stopped with Tris-glycine; 10% SDS/PAGE, Coomassie; self-association (dimer)
[7] = target: AD-HAB1 (169-511) (Arabidopsis thaliana) (UniProt Q9CAJ0); remark: listed apart in the source

Chain of AD-HAB1 (169-511) (Arabidopsis thaliana) (Q9CAJ0 whole entry): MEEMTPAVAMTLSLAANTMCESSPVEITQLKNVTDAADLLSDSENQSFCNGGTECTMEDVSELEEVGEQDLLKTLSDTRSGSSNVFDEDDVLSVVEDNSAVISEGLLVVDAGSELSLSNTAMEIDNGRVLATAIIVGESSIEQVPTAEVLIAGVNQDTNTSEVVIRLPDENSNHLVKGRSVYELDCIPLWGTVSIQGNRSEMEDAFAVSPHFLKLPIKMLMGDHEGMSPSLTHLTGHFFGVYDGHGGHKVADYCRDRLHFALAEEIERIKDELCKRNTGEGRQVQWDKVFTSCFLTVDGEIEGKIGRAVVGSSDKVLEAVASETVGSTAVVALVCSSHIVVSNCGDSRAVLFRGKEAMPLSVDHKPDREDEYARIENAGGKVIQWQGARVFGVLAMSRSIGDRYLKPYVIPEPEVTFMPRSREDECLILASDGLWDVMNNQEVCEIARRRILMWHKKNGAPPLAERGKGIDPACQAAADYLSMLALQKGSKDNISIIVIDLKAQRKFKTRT

Molecule | inhibition of HAB1 (0.5 μM) phosphatase activity by 1 μM PYL3 mutant, without ABA [4] [%] | also measured
CC1=CC(=O)CC(C)(C)[C@@]1(O)/C=C/C(C)=C\C(=O)O [ABA] |  | inhibition at 5 µM (PYL3 with HAB1 [1]): ~70%; HAB1 phosphatase assay (Promega V2460), phosphopeptide substrate (PYL3 with HAB1 [2]): PYL3 could almost completely inhibit the activity of HAB1 in the presence of ABA; inhibition at 5 µM (PYL3 with HAB1 [3]): ~70%
PYL3 V108K V107L (receptor) MNLAPIHDPSSSSTTTTSSSTPYGLTKDEFSTLDSIIRTHHTFPRSPNTCTSLIAHRVDAPAHAIWRFVRDFANPNKYKHFIKSCTIRVNGNGIKEIKVGTIREVSLKSGLPASTSVEILEVLDEEKRILSFRVLGGEHRLNNYRSVTSVNEFVVLEKDKKKRVYSVVLESYIVDIPQGNTEEDTRMFVDTVVKSNLQNLAVISTASPT | 25 | inhibition of HAB1 phosphatase activity by the PYL3 mutant, without ABA (as retold in the discussion, Fig. 3) [5]: 20%
PYL3 V108K V107L V192L L111F (receptor) MNLAPIHDPSSSSTTTTSSSTPYGLTKDEFSTLDSIIRTHHTFPRSPNTCTSLIAHRVDAPAHAIWRFVRDFANPNKYKHFIKSCTIRVNGNGIKEIKVGTIREVSLKSGFPASTSVEILEVLDEEKRILSFRVLGGEHRLNNYRSVTSVNEFVVLEKDKKKRVYSVVLESYIVDIPQGNTEEDTRMFVDTLVKSNLQNLAVISTASPT | 85 | 
BD-PYL3 V108K V107F V192F L111F (receptor) MNLAPIHDPSSSSTTTTSSSTPYGLTKDEFSTLDSIIRTHHTFPRSPNTCTSLIAHRVDAPAHAIWRFVRDFANPNKYKHFIKSCTIRVNGNGIKEIKVGTIREVSFKSGFPASTSVEILEVLDEEKRILSFRVLGGEHRLNNYRSVTSVNEFVVLEKDKKKRVYSVVLESYIVDIPQGNTEEDTRMFVDTFVKSNLQNLAVISTASPT | 98 | 
BD-PYL3 V108K V107F V192F (receptor) MNLAPIHDPSSSSTTTTSSSTPYGLTKDEFSTLDSIIRTHHTFPRSPNTCTSLIAHRVDAPAHAIWRFVRDFANPNKYKHFIKSCTIRVNGNGIKEIKVGTIREVSFKSGLPASTSVEILEVLDEEKRILSFRVLGGEHRLNNYRSVTSVNEFVVLEKDKKKRVYSVVLESYIVDIPQGNTEEDTRMFVDTFVKSNLQNLAVISTASPT | 90 | 
PYL3 V108A (6x His-tagged) (receptor, Arabidopsis thaliana, UniProt Q9SSM7 1-209, looked up, PYL3, Arabidopsis thaliana, in pET-28a-tev, site-directed mutant; Same limits as m1; source: E. coli BL21(Rosseta), purified (Ni-charged resin, SEC Superdex-200)) MNLAPIHDPSSSSTTTTSSSTPYGLTKDEFSTLDSIIRTHHTFPRSPNTCTSLIAHRVDAPAHAIWRFVRDFANPNKYKHFIKSCTIRVNGNGIKEIKVGTIREVSVASGLPASTSVEILEVLDEEKRILSFRVLGGEHRLNNYRSVTSVNEFVVLEKDKKKRVYSVVLESYIVDIPQGNTEEDTRMFVDTVVKSNLQNLAVISTASPT |  | stoichiometry N [6]: 2
wild-type PYL3 (6x His-tagged) (receptor, Arabidopsis thaliana, UniProt Q9SSM7 1-209, looked up, PYL3 (pyrabactin resistance/Pyr1-like 3), Arabidopsis thaliana, subcloned from a cDNA library into pET-28a-tev; also called PYL3 WT; source: E. coli BL21(Rosseta), purified (Ni-charged resin, SEC Superdex-200)) MNLAPIHDPSSSSTTTTSSSTPYGLTKDEFSTLDSIIRTHHTFPRSPNTCTSLIAHRVDAPAHAIWRFVRDFANPNKYKHFIKSCTIRVNGNGIKEIKVGTIREVSVVSGLPASTSVEILEVLDEEKRILSFRVLGGEHRLNNYRSVTSVNEFVVLEKDKKKRVYSVVLESYIVDIPQGNTEEDTRMFVDTVVKSNLQNLAVISTASPT |  | stoichiometry N [6]: 2
BD-PYL3 V108K V107L V192F L111F (receptor) MNLAPIHDPSSSSTTTTSSSTPYGLTKDEFSTLDSIIRTHHTFPRSPNTCTSLIAHRVDAPAHAIWRFVRDFANPNKYKHFIKSCTIRVNGNGIKEIKVGTIREVSLKSGFPASTSVEILEVLDEEKRILSFRVLGGEHRLNNYRSVTSVNEFVVLEKDKKKRVYSVVLESYIVDIPQGNTEEDTRMFVDTFVKSNLQNLAVISTASPT | 92.5 | 
PYL3 V108K V107L V192L (receptor) MNLAPIHDPSSSSTTTTSSSTPYGLTKDEFSTLDSIIRTHHTFPRSPNTCTSLIAHRVDAPAHAIWRFVRDFANPNKYKHFIKSCTIRVNGNGIKEIKVGTIREVSLKSGLPASTSVEILEVLDEEKRILSFRVLGGEHRLNNYRSVTSVNEFVVLEKDKKKRVYSVVLESYIVDIPQGNTEEDTRMFVDTLVKSNLQNLAVISTASPT | 50 | 
PYL3 F188A (receptor) MNLAPIHDPSSSSTTTTSSSTPYGLTKDEFSTLDSIIRTHHTFPRSPNTCTSLIAHRVDAPAHAIWRFVRDFANPNKYKHFIKSCTIRVNGNGIKEIKVGTIREVSVVSGLPASTSVEILEVLDEEKRILSFRVLGGEHRLNNYRSVTSVNEFVVLEKDKKKRVYSVVLESYIVDIPQGNTEEDTRMAVDTVVKSNLQNLAVISTASPT |  | inhibition of HAB1 (0.5 μM) phosphatase activity by 1 μM PYL3 mutant, with ABA (5 μM) [7]: 70%
PYL3 V108K V107L L111F (receptor) MNLAPIHDPSSSSTTTTSSSTPYGLTKDEFSTLDSIIRTHHTFPRSPNTCTSLIAHRVDAPAHAIWRFVRDFANPNKYKHFIKSCTIRVNGNGIKEIKVGTIREVSLKSGFPASTSVEILEVLDEEKRILSFRVLGGEHRLNNYRSVTSVNEFVVLEKDKKKRVYSVVLESYIVDIPQGNTEEDTRMFVDTVVKSNLQNLAVISTASPT | 80 | 
PYL3 F81A (receptor) MNLAPIHDPSSSSTTTTSSSTPYGLTKDEFSTLDSIIRTHHTFPRSPNTCTSLIAHRVDAPAHAIWRFVRDFANPNKYKHAIKSCTIRVNGNGIKEIKVGTIREVSVVSGLPASTSVEILEVLDEEKRILSFRVLGGEHRLNNYRSVTSVNEFVVLEKDKKKRVYSVVLESYIVDIPQGNTEEDTRMFVDTVVKSNLQNLAVISTASPT |  | inhibition of HAB1 (0.5 μM) phosphatase activity by 1 μM PYL3 mutant, with ABA (5 μM) [7]: 70%
BD-PYL3 V108K V107L V192F (receptor) MNLAPIHDPSSSSTTTTSSSTPYGLTKDEFSTLDSIIRTHHTFPRSPNTCTSLIAHRVDAPAHAIWRFVRDFANPNKYKHFIKSCTIRVNGNGIKEIKVGTIREVSLKSGLPASTSVEILEVLDEEKRILSFRVLGGEHRLNNYRSVTSVNEFVVLEKDKKKRVYSVVLESYIVDIPQGNTEEDTRMFVDTFVKSNLQNLAVISTASPT | 87.5 | 
PYL3 V108K V107F (receptor) MNLAPIHDPSSSSTTTTSSSTPYGLTKDEFSTLDSIIRTHHTFPRSPNTCTSLIAHRVDAPAHAIWRFVRDFANPNKYKHFIKSCTIRVNGNGIKEIKVGTIREVSFKSGLPASTSVEILEVLDEEKRILSFRVLGGEHRLNNYRSVTSVNEFVVLEKDKKKRVYSVVLESYIVDIPQGNTEEDTRMFVDTVVKSNLQNLAVISTASPT | 65 | inhibition of HAB1 phosphatase activity by the PYL3 mutant, without ABA (as retold in the discussion, Fig. 3) [5]: 40%
